Patent publication US20180244776A1

T1: human Sema3A (human) (UniProt Q14563)
T1 sequence (looked up): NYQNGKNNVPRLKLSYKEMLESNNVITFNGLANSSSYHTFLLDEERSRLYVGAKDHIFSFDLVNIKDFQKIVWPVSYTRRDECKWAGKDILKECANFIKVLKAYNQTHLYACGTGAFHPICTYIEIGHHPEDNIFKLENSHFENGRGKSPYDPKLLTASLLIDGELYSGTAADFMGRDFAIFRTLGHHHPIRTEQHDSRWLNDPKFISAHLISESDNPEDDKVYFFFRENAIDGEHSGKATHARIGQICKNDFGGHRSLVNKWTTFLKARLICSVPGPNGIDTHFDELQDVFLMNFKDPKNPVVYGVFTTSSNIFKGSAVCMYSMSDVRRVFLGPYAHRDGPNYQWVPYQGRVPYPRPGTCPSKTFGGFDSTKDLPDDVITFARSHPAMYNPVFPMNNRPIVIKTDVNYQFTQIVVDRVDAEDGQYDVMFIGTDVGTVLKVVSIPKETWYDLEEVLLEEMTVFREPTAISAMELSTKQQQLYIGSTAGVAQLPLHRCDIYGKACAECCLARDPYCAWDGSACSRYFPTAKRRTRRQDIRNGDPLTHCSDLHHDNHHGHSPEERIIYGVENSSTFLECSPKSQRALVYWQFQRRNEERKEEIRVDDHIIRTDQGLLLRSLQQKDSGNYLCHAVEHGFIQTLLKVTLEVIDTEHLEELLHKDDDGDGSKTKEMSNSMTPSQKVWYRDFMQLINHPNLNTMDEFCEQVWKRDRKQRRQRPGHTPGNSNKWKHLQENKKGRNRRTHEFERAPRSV


Molecular target: T1, human Sema3A (human)
Assay: cell-based or functional assay

| cell migration of U87-MG cells (transwell, 50 ug/ml scFv) | cell migration of patient-derived 83 cells (transwell) | cell migration of patient-derived 131 cells (transwell) | Binder |
| --- | --- | --- | --- |
| 74 % of control | 28% | 7% | F11 anti-Sema3A scFv antibody fragment (scFv, part only; not given: linker and His/HA tags, V domains shown, not shown: another chain or arm of the molecule; large carriers; small tags and cut ends) VH: EVQLLESGGGLVQTGGSLRLSCAASGFTFSDYAMSWVRQAPGKGLEWVSWIYYDSGSKYYADSVKGRFTISRDNSKNTLYLQMNSLRAEDTAVYYCAKLNGDFDYWGQGTLVTVSS VL: QSVLTQPPSASGTPGQRVTISCSGSSSNIGNNDVSWYQQLPGTAPKLLIYADSHRPSGVPDRFSGSKSGTSASLAISGLRSEDEADYYCGAWDSSLSGYVFGGGTKLTVL |
| 70 % of control | 44% | 19% | C10 anti-Sema3A scFv antibody fragment (scFv, part only; not given: linker and His/HA tags, V domains shown, not shown: another chain or arm of the molecule; large carriers; small tags and cut ends) VH: EVQLLESGGGLVQPGGSLRLSCAASGFTFSDYAMSWVRQAPGKGLEWVSGIYYDDSSQYYADSVEGRFTISRDNSKNTLYLQMNSLRAEDTAVYYCARYLGLFDYWGQGTLVTVSS VL: QSVLTQPPSASGTPGQRVTISCSGSSSNIGNNSVNWYQQLPGTAPKLLIYSDSQRPSGVPDRFSGSKSGTSASLAISGLRSEDEADYYCGSWDYSLSAYVFGGGTKLTVL |
| 78 % of control | 21% | 11% | A08 anti-Sema3A scFv antibody fragment (scFv, part only; not given: linker and His/HA tags, V domains shown, not shown: another chain or arm of the molecule; large carriers; small tags and cut ends) VH: EVQLLESGGGLVQPGGSLRLSCAASGFTFSDYAMSWVRQAPGKGLEWVSGIYYDDSSQYYADSVKGRFTISRDNSKNTLYLQMNSLRAEDTAVYYCAKNLGRFDYWGQGTLVTVSS VL: QSVLTQPPSASGTPGQRVTISCTGSSSNIGSNAVTWYQQLPGTAPKLLIYDDNHRPSGVPDRFSGSKSGTSASLAISGLRSEDEADYYCGAWDDSLSAYVFGGGTKLTVL |
